Experimental findings from publication PMC3927398 are described below.

In experiment [1] the target is actin filaments (F-actin) from rabbit skeletal muscle, phalloidin-stabilized (rabbit) (UniProt P68135). In words: co-sedimentation.
In experiment [2] the target is MYO19-1IQ (N-terminal FLAG-tagged human MYO19, motor domain and one IQ motif, amino acids 2-787) (human) (UniProt Q96H55). In words: co-purification.

Usually Kd stands for the free concentration of one partner at which half of the binding sites on the other are occupied at equilibrium, for simple one-to-one binding. In experiment [1], “MYO19-1IQ with bound calmodulin light chain (from UniProt Q96H55-1 2-787; P0DP23 1-149) (complex)” came in with a Kd of 1.2 µM and a fraction bound at 5 μM actin without ATP of 0.8.
Consider “calmodulin (from UniProt P0DP23 1-149) (natural protein)”, for which, in experiment [2], the stoichiometry N (CaM/MYO19-1IQ) stood at 1.1.
